Assay results from doi:10.1101/2021.05.26.445723 (bioRxiv, 2021).

Target: GST-Sir3^SaID (S. cerevisiae, UniProt P06701 531-723)
Experiment: pull-down

Sequence of GST-Sir3^SaID (P06701 531-723): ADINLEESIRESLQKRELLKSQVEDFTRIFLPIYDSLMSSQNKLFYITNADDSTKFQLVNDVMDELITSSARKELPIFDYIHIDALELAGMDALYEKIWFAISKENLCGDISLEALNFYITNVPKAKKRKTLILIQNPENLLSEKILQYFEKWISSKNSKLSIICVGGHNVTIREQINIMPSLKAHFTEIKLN

B1: Sae2^C (purified) (domain or fragment, S. cerevisiae, UniProt P46946 173-345, looked up)
chain: ENPESTSPNLYKNVKDNFLFDFNTNPLTKRAWILEDFRPNEDIAPVKRGRRKLERFYAQVGKPEDSKHRSLSVVIESQNSDYEFAFDNLRNRSKSPPGFGRLDFPSTQEGNEDKKKSQEIIRRKTKYRFLMASNNKIPPYEREYVFKREQLNQIVDDGCFFWSDKLLQIYARC
Question: Does B1 bind?
Answer: binds
